# Source: the nanobody polyreactivity screen of Harvey et al. (2022)
# Assay: yeast display, Sf9 membrane polyspecificity reagent, FACS + sequencing; frameworks hold sequencing errors
# In short: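 Synthetic nanobody libraries on Saccharomyces cerevisiae BJ5465 were galactose-induced for 36–48 hours, stained 1 hour at 4 °C with 10% biotinylated, detergent-solubilized Sf9 membrane reagent and enriched on streptavidin microbeads. FACS then separated cells into low and high (top ~1%) gates by anti-HA (expression) and streptavidin (reagent binding) fluorescence. Genes were colony-PCR amplified, MiSeq 2 × 250 sequenced and CDR-length filtered. A clone's polyreactivity label is that of its gate of origin.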
row,Sequence,polyreactivity (PSR sort gate)
1,QVQLVESGGGLVQAGGSLRLSCAASGFIFRYYSMAWYRQAPGKERELVAAISGSGGGTYYADSVKGRFTISRDYAKNTVYLQMNSLKPEDTAVYYCNARKVYSRRYKYDYWGQGSQVTVSS,high polyreactivity
2,QVQLQESGGGLVQAGGVLRLSCAASGTISGPHVMGWYRQAPGKEREFVAAINDGANTYYADNVKGRFTISRDNAKNTVYLQMNILKPEDTAVYYCAAVFYGDIGHEYWGQGTQVTVSC,low polyreactivity
3,QVQLVESGGGLVQAGGSLRLSSAASGSIFIPYAMGWYRQAPGKERELVAAISSSGSTYYADSVKGRFTISRDNAKNTVYFQMNSLKPEDTAVYYCAAAWHTAYWDGSDTLGGGYWGQGTQVTVSS,low polyreactivity
4,QVQLEESGGGLVQAGGSLRLSCAASGGTFAQYVMGWYRQAPGKERELVAAISRTGGRTYYADSVKGRFTISRDNAKNTVYLQMNSLKPEDTAVYYCARVYTSYGTPWTNYDYWGQGTQVTVSS,high polyreactivity
5,QVQLVESGGGLVQAGGSLRLSCAASGSIFVKNAMGWYRQAPGKERELVARITYSGGSTYYADSVKGRFTISRDNAKNTVYLQMNSLKPEDTADYYCDTDGNLRTAGYAYDHYYWGQGTQVTVSS,high polyreactivity
6,QVQLVESGGGLVQAGGSLRISCAASGGIFFQNAMGWYRQAPGKERELVAAISWSAGSTYYADSVKGRFTISRDNAKNSVDLQMNRQKPEDTAVDSCAGRVGCGRAIDLYYYWGQGTQVTVSS,low polyreactivity
7,QVQLVESGGGLVQAGGSLRLSCAASGSTYRYYAMGWYRQAPGKERELVAGISWSGTSTYYADSVKGRFTISRDNANNTVYLQMNSLKPEDTAVYYSNVVWWSRYGTTYKYDYWGQGTQVTVSS,high polyreactivity
8,QVQLVESGGGLVQAGGSLRLSCAASGSIFGAYTMRWYRQAPGKERELVAAITGGGITNYADSVKGRFTISRDNAKNTVYLQMNSLKPEDTAVYYCNAGYPPQTVVVGYDYWGQGTQVTVSS,low polyreactivity
9,QVQLVESGGGLVQAGGSLRLSCAASGSTFRLNAMGWYRQAPGKERELVAAISWTGGSTYYADSVKGRFTISRDNAKNTVYLQMNSLKPEDTAVYYCAADWWQGTSHYWGGAYNYWGQGTQVTVSS,low polyreactivity
10,QVQLVESGGGLVQAGGSLRLSCAASGRISESNDMGWYRQAPGKERELVAAISSSGGSTYYADSVKGRFTISRDNAKNTVYLQMNSLKPVDTAVYYCNAVYYRTVLKIGVYEYDYWGQGTQVTVSS,low polyreactivity
11,QVQLVESGGGLVQARGSLRLSCAASGFNFRSYAMASYRQAPGKERELVAAINSRAGNTYYADSVKGRFTISRDNSKNTVYLQMNSLKPEDTAVYYCNAVRHTYGYYSCGQGTQVTVSS,high polyreactivity
12,QVQLVESGGGLVQAGGSLRLSCAASGFIFDGYAMGWYRQAPGKERELVAAIDSGGDRTYYADSVKGRFTISRDNAMNTVYLQMNSLKPEDTAVYYCAADSSDPTGYDYWGQGTQVTVSS,low polyreactivity
13,QVQLVESGGGLVQAGGSLRLSCAASGSIFIYYAMGWYRQAPGKEREFVAAISYSDGDTYYADSVKGRFTISRDNAKNTVYLQMNSLKPEDTAVYYCAAEVPQYYDVGWEDHWGQGTQVTVSS,high polyreactivity
14,QVQLVESGGGLVQAGGSLRLSCAASGRIFRKYAMGWSRQAPGKERELVAAISVGGGSTRYADSVKGRFTISRDNAKNTVYLQMNSLKDEDTAVYYCAADWAYYVASYLYYTFDYWGQGTQVTVSS,low polyreactivity
15,QIQLVESCGGLVQAGGSLRLICDDSGITFTIYAMGGYRQAHGKERELVAAIDSGGGTNYADSVKGRFTISRDNAKNTVYLQMNSLKPEDTAFYYCAAYWYAEGYWVSRDYWGQGTQVTVSS,low polyreactivity
16,QVQLVESVGGLVQAGGSLRLSCAASGFTIYPYAMGWYRQAPGKERELVAAISSSGGNTYYADSVKGRFTISRDNAKNTVYLQMNSLKPEDTAVYYCNARVYRWAIAPDDDSWGQGTQVTVSS,high polyreactivity
17,QVQLEESGGGLVQAGGRLRLSCAASGRIFSRNAMGGSRTATGKERELVAAISSSTGSTYYADSVKGRFTISRDNAKKTVYLQMNSLKPEDTAVYYCAARYWGDYFTEMNYWGQGTQVTVSS,high polyreactivity
18,QVQLVESGGGLVQAGGSLRLSCAASGSILGINVMGWYRPAPGKERELVAAISRRGGSTYYADSVKGRFTISRDNAKNTVYLQMNSLKPEDTAVYYCAATRTARTMGYWGQGTQVTVSS,high polyreactivity
19,QVQLVESGGGLVQAGGTLRLSCAASGIIFHWYAMGWYRQAPGKERELVAAITQSGGSTSYADSVKGRFTISRDNAKNTVYLQMNSLIPEDTAVYYCNAREVRDEYNYWGQGTQVTVSS,low polyreactivity
20,QVQLEESGGGLVQAGGSLRLSCAASGRIFDVNAMGWYRQAPGKERELVPRITSDGGTYYADSVKGRFTISRDNAKNTVYLQMNSLKPEDTAVYYCNAPYWFSPGYGGFEFGYDYWGQGTQVTVSS,low polyreactivity
21,QVQLVESGGGLVQAGGSLRLSCAASGSTFRQYAMGWYRQAPGKERELVAAIRGRDGSTYYADSVKGRFTISRDNAKNTVYLQMNSLKPEDTAVYYCNVVARGVSPGYDYWGQGTQVTVSS,high polyreactivity
22,QVQLVESGGGLVQAGGSLRLSCAASGSIFGGYVMGWFRQAPGKERELVAAITSNGGITYADSVKGRFTISRDNAKNTVYLQMHSLKPEDTAVYYCAADSWFYGGEYKFGYYWGQGTQVTVSS,low polyreactivity

row,Sequence,polyreactivity (PSR sort gate)
1,QVQLVESGGGLVQAGGSLRLSCAASGRTFWNNAMGWYRQAPGKERELVAAISVRGGSTYYADSVKGRFTISRDNAKNTVYLQMNSLKPEDTAVYYCATRSRGWIAPPWQGSDGYYYWGQGTQVTVSS,low polyreactivity
2,QVHLVESGGGLVQAGGSLRLSCAATGSIFRPYAMGWYRQAPGKERELVATITWRGGTTYYADSVKGRFTISRDNAKNTVILQMISLKPEDSAVYYCAAYVPFLTSAYDYWGHGTQVTVSS,low polyreactivity
3,QVQLVESGGGLVQAGGSLRLSCAASGYIFGGYAMGWNRQAHGKERELVAGISIGVGSTYYADSVKGRFTISRDKAKNTVNLQMNSLKPEDTAVYYCNRDSVGYDYWGQGTQVTVSS,low polyreactivity
4,QVQLVESGGGLVQAGGSLRLSCAASGFTYGVYAMGWYRPAPGKERELVAAISRRGTSTYYADSVKGRFTISRDNAKNTVYLQMNSLKPEDTAVYFCNARRYQVTVDHWGQGTQVTVSS,high polyreactivity
5,QVQLVESGGGLVQAGGSLRLSCAASGSTFDSNAMGWYRQAPGKERELVAGITIGGSTNYADSVKGRFTISRDNAKNTVFLQMNSLKPEDTAVYYCNVVKYVYIYSYWEYYYWGQGTQVTVSS,low polyreactivity
6,QVQLVESGGGLVQAGGSLRLSCAASGSTFYEYAMGWYRQAPGKERELVAAISSGGSTYYADSVTGRFTISRDNAKNTVYLLMNSLKPEDTAVYYCNADCQTYCGEYDYWGQGTQVTVSS,low polyreactivity
7,QVQLVESGGGLVQAGGSLRLSCAASGSIFSWNAMGWYRPAPGKEREFVAAISYGSTSTTYADSVKGRFTISRDNAKNTVYLQMNSLKPEDTAVYYCAAVPRRSGHQRWGATYYYWGQGTQVTVSS,high polyreactivity
8,QVQLVESGGGLVQEGGSLRLSCAASVRIFSDYAMGWYIQAPGKERELVATITSGDSTNYADSVKGRFTISRDNAKNTVYLQMNSLKPEDNAVYYFNADRFADYDYWGQGTQVTVSS,low polyreactivity
9,QVQLVESGGGLVQAGGSLRLSCAASGSTFYRYAMGWYRQAPGKERELVAAITSAGSTNYADSVKGRFTISRDNAKNTVYLQMNSLKPEDTAVYYCAADHGRPYFSYDYWGQGTQVTVSS,low polyreactivity
10,QVQLVESGGGLVQAGGSLRLSCAASGSTFPYYAMGWYRQAPGKERELVAAISRGDSTNYADSVKGRFTISRDNAKNTVYLQMNSLKPEDTAVYYCAARLQYRRTSVKYYYWGQGTQVTVSS,high polyreactivity
11,QVHLVESGGGLLQAGGSLRLSCAASGTIYGVYAMGWYRQAPEKEGELVAAISWTDGTTYYADSVKGRFTISRDNAKNTVYLQINSLKPEDTAVYYCAAEADVPPYLFGYWGQGTQVTVSS,high polyreactivity
12,QVQLVESGGGLVQAGGSLRLSCAASGSTFQANTMGWYRQAPGKERELVAAISIRGANTYYADSVKGRFTISRDNAKNTVYLQMNSLKPEDTAVYYCATRVRKYSLRLDYWGQGTQVTVSS,high polyreactivity
13,QVQLVESGGGLVQAGGSLRLSCAASGRIFFRNAMGWYRQAPGKERELVAAISKSGTRTYYADSVKGRFTISRDNAKNTVYLQMHSLKPEDTAVYYCNALLRDCGTYAGDDYWGQGTQVTVSS,high polyreactivity
14,QVQLVESGGGLVQAGGSLRLSCAASGSIFSANAMGWYRQAPGKERELVAAISRSGGRTYYADSVKGRFTISRDNAKNTVYLQMNSLKPEDTAVYYCAADKSRYSVGYDYWGQGTQVTVSS,high polyreactivity
15,QVQLVESGGGLVQAGGSLRLSCAASGFTFPRYAMGWYRQAPGKERELVAAITSGDRTYYADSVKGRFTISRDNAKNTVYLQMNSLKPEDTAVYYCARVPDTEGEYWGQGTQVTVSS,high polyreactivity
16,QVQLVESGGGLVQAGGSLRLSCAASGSIFGYYTMGWYRQAPGKERELVATITSGGSTYYADSVKGRFTISRDNAKNTDYLQMNSLKPEDTAVYYCNARTAQNVVLYDFGYWGQGTQVTVSS,high polyreactivity
17,QVQLVESGGGLVQAGGSLRLSCAASGSTFWGYAMGWYRQAPGTERELVAAITRNGGGTYYADSVKGRFTISRDNAKNTVYLQMNSLKPEDTAVYYCAATRRAYYLYGGQKMDYWGQGTQVTVSS,high polyreactivity
18,QVQLVDSGGGLVQAGGSLRLSCAASGSIIKRKAMGWYRQAPGKERELVASISSGGSTHYADSVKGRFTISRDNAKNTVYLQMNSLKPEDTAVYYCAATSIRWSVGSFRRDYWGQGTQVTVSS,low polyreactivity
19,QVQLVESGGGIVQAGGSLRLSCAASGSTFDGYAMGWYRQAPGKERELVAAITRSGGSTYYADSVKGRFTISRDNAKNTVYLQMNSLKPEDTEVYYCNKYGYKGGVGYDYWGQGTQVTVSS,high polyreactivity
20,QVQLVESGAGLVQAGGSLRLCCAASGFIFRVYAMGLYRQAPGKERELVAAISDSGGSTTYADSVKGRFTISRDNAKNTVYLQMNSLKPEDTAVYYCAAKLPRSRYRGVDYWGQGTQVTVSS,low polyreactivity
21,QVQLVESRGGIVQAGGSLRLSCAASGRIFGWYAMGWYRQAPGKERELVAAITSSVGRTYYADSVKGRFTISRDNAKNTVYLQMNSLKPEDTAVYYCAKDLYTYYYFEYDYWGQGTQVTVSS,low polyreactivity
